B1: recombinant IFN-γ: Recombinant murine IFN-γ (Peprotech) (protein, UniProt P01580 23-155, looked up)
Interferon gamma: HGTVIESLESLNNYFNSSGIDVEEKSLFLDIWRNWQKDGDMKILQSQIISFYLRLFEVLKDNQAISNNISVIESHLITTFFSNSKAKKDAFMSIAKFEVNNPQVQRQAFNELIRVVHQLLPESSLRKRKRSRC

What was measured:
[1] = test system: peripheral blood mononuclear cells from a melanoma patient; assay: Patient PBMC stimulated in vitro with IFN-γ, apoptosis of CD8+ T cells; assay type: cell-based, human; conditions: different concentrations of IFN-γ; FIG. 5D
Source text: It has been shown that T cell homeostasis can be achieved by down-modulation of antigen specific T cell receptor (TCR) signaling (A. M. Gallegos et al., Nature immunology 17, 379-386 (2016)). To investigate whether combination treatment eliminated different T cell clones depended on the strength of TCR binding to cognate cancer epitope, we gated on CD8 subsets and investigated Spas-1hi versus Spas-11o CD8+ T cell clones (FIG. 12C). […] Finally, peripheral blood mononuclear cells from a melanoma patient that received nivolumab immunotherapy were isolated and cultured in vitro with different concentrations of IFN-γ stimulation.
Splenocytes were harvested from TRAMP-C2 bearing C57BL/6j mice on day 50 and T cells were purified by magnetic beads according to the manufacturer's protocol (Miltenyi Biotec Cat 130-095-130). Cells were checked for over 90% purity. Purified T cells were suspend in DMEM (UCSF cell culture core) +10% fetal bovine serum (Lonza Cat 14-501F) +1% penicillin/streptomycin (UCSF cell culture core)+murine 20 IU IL-2 (Peprotech Cat 212-12), and seeded in 96 wells at 2×10^5 cells per well. Recombinant murine IFN-γ (Peprotech Cat 212-12) was added into the wells at indicated concentrations. Cells were cultured for 12-72 hours and analyzed by flow cytometry. […] Cells were harvested and analyzed by flow cytometry 72 hours after incubation.

[2] = test system: T cells purified from TRAMP-C2 tumor bearing mice; assay: In vitro T cell cultures stimulated with recombinant IFN-γ, active Caspase-3; assay type: cell-based; conditions: 72 hours after IFN-γ stimulation; FIG. 5B
Protocol: We hypothesized that the loss of Spas-1 specific CD8+ T cells may be related to increased IFN-γ signaling. […] To further evaluate the effects of IFN-γ on antigen specific T cells, T cells were purified from spleens of tumor-bearing mice and stimulated with different concentrations of recombinant IFN-γ in vitro (FIG. 5A). 72 hours after the stimulation, the level of active Caspase-3 expression was examined among T cells subsets, including naïvee T cells (CD45+CD8+CD44-CD62L+), antigen specific T cells (CD45+CD8+Spas-1), and effector T cells (CD45+CD8+CD44+CD62L-). Activated effector T cells and antigen specific T cells were more susceptible to IFN-γ induced active Caspase-3 expression compared to naïvee T cells (FIG. 5B; 2297.33±305.84 versus 2281.67±305.89 versus 723±17.54; P<0.001).
Splenocytes were harvested from TRAMP-C2 bearing C57BL/6j mice on day 50 and T cells were purified by magnetic beads according to the manufacturer's protocol (Miltenyi Biotec Cat 130-095-130). Cells were checked for over 90% purity. Purified T cells were suspend in DMEM (UCSF cell culture core) +10% fetal bovine serum (Lonza Cat 14-501F) +1% penicillin/streptomycin (UCSF cell culture core)+murine 20 IU IL-2 (Peprotech Cat 212-12), and seeded in 96 wells at 2×10^5 cells per well. Recombinant murine IFN-γ (Peprotech Cat 212-12) was added into the wells at indicated concentrations. Cells were cultured for 12-72 hours and analyzed by flow cytometry. For the patient sample, peripheral blood mononuclear cells (PBMCs) were isolated by Ficoll (Sigma Cat F4375) and PBMCs were seeded in 96 wells at 2×10^5 cells per well supplemented with 20 IU human IL-2 (Peprotech Cat 200-02). Recombinant human IFN-γ (Peprotech Cat 212-12) was added to the wells. Cells were harvested and analyzed by flow cytometry 72 hours after incubation.
The flow cytometry protocols were previously described (Sckisel et al., 2015). […] Flow cytometry was performed on Fortessa X20 Dual, and data analyzed by FlowJo software (TreeStar). […]

Molecule	apoptosis (Annexin V) in CD8+ T cells [1]	active Caspase-3 expression, antigen specific T cells (CD45+CD8+Spas-1) [2]	active Caspase-3 expression, effector T cells (CD45+CD8+CD44+CD62L-) [2]	active Caspase-3 expression, naïve T cells (CD45+CD8+CD44-CD62L+) [2]
IFN-γ: Recombinant human IFN-γ (Peprotech) added to patient PBMCs	gradual increase in apoptosis	–	–	–
B1	–	2281.67±305.89	2297.33±305.84	723±17.54

From patent US20200268795A1, “INTERFERON-GAMMA ATTENUATES ANTI-TUMOR IMMUNE RESPONSE TO CHECKPOINT BLOCKADE” (The Regents of the University of California, priority 2017, published 2020)
